The values below come from article PMC4335783, “A novel psychrophilic alkaline phosphatase from the metagenome of tidal flat sediments” (BMC Biotechnology, 2015).

The data set concerns T1, O=[N+]([O-])c1ccc(OP(=O)(O)O)cc1.
T1 construct: printed as 527 residues, 56 kDa; C-terminal factor Xa site and His6 tag; E. coli BL21(DE3) periplasm; monomer
The experiment in a line: purified protein. In kind it is biochemical, uncultured bacterium. Particulars: 37 °C, pH 9.0, 50 mM DEA, 0.5 mM CaCl2.

In the case of “mAP (metagenome-derived alkaline phosphatase) (uncultured bacterium)”, the Km was found to be 180 µM, the kcat is 952 s⁻¹ and the kcat/Km amounted to 5.3e+06 M⁻¹ s⁻¹.

The Km is the concentration of substrate that gives half-maximal velocity. For orientation: kcat means the number of substrate molecules converted per active site and unit of time at saturation. As usually defined, the kcat/Km is the turnover number divided by the Michaelis constant.
